Results as given in patent publication US20020197616A1 (REGENTS OF THE UNIVERSITY OF MICHIGAN, published 2002).

B1: TRAF-1 (other, UniProt Q13077 1-416, looked up)
chain: MASSSGSSPRPAPDENEFPFGCPPTVCQDPKEPRALCCAGCLSENPRNGEDQICPKCRGEDLQSISPGSRLRTQEKAHPEVAEAGIGCPFAGVGCSFKGSPQSVQEHEVTSQTSHLNLLLGFMKQWKARLGCGLESGPMALEQNLSDLQLQAAVEVAGDLEVDCYRAPCSESQEELALQHFMKEKLLAELEGKLRVFENIVAVLNKEVEASHLALATSIHQSQLDRERILSLEQRVVELQQTLAQKDQALGKLEQSLRLMEEASFDGTFLWKITNVTRRCHESACGRTVSLFSPAFYTAKYGYKLCLRLYLNGDGTGKRTHLSLFIVIMRGEYDALLPWPFRNKVTFMLLDQNNREHAIDAFRPDLSSASFQRPQSETNVASGCPLFFPLSKLQSPKHAYVKDDTMFLKCIVETST
notes: Construct and tag not described
B2: TRAF-2 (other, UniProt Q12933 1-501, looked up)
chain: MAAASVTPPGSLELLQPGFSKTLLGTKLEAKYLCSACRNVLRRPFQAQCGHRYCSFCLASILSSGPQNCAACVHEGIYEEGISILESSSAFPDNAARREVESLPAVCPSDGCTWKGTLKEYESCHEGRCPLMLTECPACKGLVRLGEKERHLEHECPERSLSCRHCRAPCCGADVKAHHEVCPKFPLTCDGCGKKKIPREKFQDHVKTCGKCRVPCRFHAIGCLETVEGEKQQEHEVQWLREHLAMLLSSVLEAKPLLGDQSHAGSELLQRCESLEKKTATFENIVCVLNREVERVAMTAEACSRQHRLDQDKIEALSSKVQQLERSIGLKDLAMADLEQKVLEMEASTYDGVFIWKISDFARKRQEAVAGRIPAIFSPAFYTSRYGYKMCLRIYLNGDGTGRGTHLSLFFVVMKGPNDALLRWPFNQKVTLMLLDQNNREHVIDAFRPDVTSSSFQRPVNDMNIASGCPLFCPVSKMEAKNSYVRDDAIFIKAIVDLTGL
notes: as for B1
B3: RIP (enzyme, UniProt Q13546 1-671, looked up)
chain: MQPDMSLNVIKMKSSDFLESAELDSGGFGKVSLCFHRTQGLMIMKTVYKGPNCIEHNEALLEEAKMMNRLRHSRVVKLLGVIIEEGKYSLVMEYMEKGNLMHVLKAEMSTPLSVKGRIILEIIEGMCYLHGKGVIHKDLKPENILVDNDFHIKIADLGLASFKMWSKLNNEEHNELREVDGTAKKNGGTLYYMAPEHLNDVNAKPTEKSDVYSFAVVLWAIFANKEPYENAICEQQLIMCIKSGNRPDVDDITEYCPREIISLMKLCWEANPEARPTFPGIEEKFRPFYLSQLEESVEEDVKSLKKEYSNENAVVKRMQSLQLDCVAVPSSRSNSATEQPGSLHSSQGLGMGPVEESWFAPSLEHPQEENEPSLQSKLQDEANYHLYGSRMDRQTKQQPRQNVAYNREEERRRRVSHDPFAQQRPYENFQNTEGKGTAYSSAASHGNAVHQPSGLTSQPQVLYQNNGLYSSHGFGTRPLDPGTAGPRVWYRPIPSHMPSLHNIPVPETNYLGNTPTMPFSSLPPTDESIKYTIYNSTGIQIGAYNYMEIGGTSSSLLDSTNTNFKEEPAAKYQAIFDNTTSLTDKHLDPIRENLGKHWKNCARKLGFTQSQIDEIDHDYERDGLKEKVYQMLQKWVMREGIKGATVGKLAQALHQCSRIDLLSSLIYVSQN
notes: as for B1
B4: Ced-4 (other, UniProt P30429 1-549, looked up)
chain: MLCEIECRALSTAHTRLIHDFEPRDALTYLEGKNIFTEDHSELISKMSTRLERIANFLRIYRRQASELGPLIDFFNYNNQSHLADFLEDYIDFAINEPDLLRPVVIAPQFSRQMLDRKLLLGNVPKQMTCYIREYHVDRVIKKLDEMCDLDSFFLFLHGRAGSGKSVIASQALSKSDQLIGINYDSIVWLKDSGTAPKSTFDLFTDILLMLKSEDDLLNFPSVEHVTSVVLKRMICNALIDRPNTLFVFDDVVQEETIRWAQELRLRCLVTTRDVEISNAASQTCEFIEVTSLEIDECYDFLEAYGMPMPVGEKEEDVLNKTIELSSGNPATLMMFFKSCEPKTFEKMAQLNNKLESRGLVGVECITPYSYKSLAMALQRCVEVLSDEDRSALAFAVVMPPGVDIPVKLWSCVIPVDICSNEEEQLDDEVADRLKRLSKRGALLSGKRMPVLTFKIDHIIHMFLKHVVDAQTIANGISILEQRLLEIGNNNVSVPERHIPSHFQKFRRSSASEMYPKTTEETVIRPEDFPKFMQLHQKFYDSLKNFACC
notes: as for B1

The binders below were run against T1, Nod2 (wild-type, HA-tagged) (human, UniProt Q9HC29 1-1040) (assay: co-immunoprecipitation, HEK293T extracts).
T1 construct: Expressed in HEK293T cells and tested in cell extracts by co-immunoprecipitation; also called Nod2a; wt Nod2; not shown: HA tag; the plasmid is named both pcDNA3-Nod2-HA and pcDNA3-HA-Nod2, so the end that carries the ta
Excerpt: Proteins co-immunoprecipitated with anti-HA antibody were detected with anti-Flag antibody. […] Proteins in total lysate were detected by anti-Flag and anti-HA monoclonal antibody, respectively. […]

T1 sequence (Q9HC29 whole entry): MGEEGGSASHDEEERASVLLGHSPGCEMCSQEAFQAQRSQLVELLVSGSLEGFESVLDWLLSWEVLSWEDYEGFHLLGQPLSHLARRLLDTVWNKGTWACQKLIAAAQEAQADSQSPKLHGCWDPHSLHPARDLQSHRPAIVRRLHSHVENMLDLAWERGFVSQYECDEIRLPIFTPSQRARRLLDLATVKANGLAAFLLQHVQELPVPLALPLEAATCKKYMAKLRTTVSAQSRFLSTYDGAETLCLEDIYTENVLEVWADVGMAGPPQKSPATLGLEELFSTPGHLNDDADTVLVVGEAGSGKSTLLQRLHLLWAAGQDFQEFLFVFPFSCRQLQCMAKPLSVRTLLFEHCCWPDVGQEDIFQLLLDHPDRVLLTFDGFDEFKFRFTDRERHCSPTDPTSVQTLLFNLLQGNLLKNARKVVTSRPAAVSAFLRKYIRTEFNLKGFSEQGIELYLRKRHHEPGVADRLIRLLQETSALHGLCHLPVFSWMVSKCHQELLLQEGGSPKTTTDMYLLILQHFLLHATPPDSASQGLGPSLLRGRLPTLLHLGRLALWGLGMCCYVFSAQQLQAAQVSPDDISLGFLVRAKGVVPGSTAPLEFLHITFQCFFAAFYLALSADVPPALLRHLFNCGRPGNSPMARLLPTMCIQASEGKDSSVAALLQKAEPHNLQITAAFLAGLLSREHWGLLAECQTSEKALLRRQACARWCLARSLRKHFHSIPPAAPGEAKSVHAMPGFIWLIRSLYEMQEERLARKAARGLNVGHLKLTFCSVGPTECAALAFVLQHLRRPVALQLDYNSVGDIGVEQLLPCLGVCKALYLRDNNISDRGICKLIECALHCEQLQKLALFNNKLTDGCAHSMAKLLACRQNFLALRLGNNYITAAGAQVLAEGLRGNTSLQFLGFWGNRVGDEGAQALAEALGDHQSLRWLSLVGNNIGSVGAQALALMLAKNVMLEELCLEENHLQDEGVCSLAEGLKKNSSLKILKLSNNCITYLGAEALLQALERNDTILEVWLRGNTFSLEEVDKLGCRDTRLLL

Binding result, no binding:
B1
B2
B3
B4
